Laboratory results published in PMC9368758, “Cellular Redox Metabolism Is Modulated by the Distinct Localization of Cyclic Nucleotide Phosphodiesterase 5A Isoforms” (International Journal of Molecular Sciences, 2022).
Several values for one entry are separate records, joined by “and”; a condition that tells them apart may be missing. Equal entries are not always repeated.

Key:
[1] = target: MmPDE5A2 (Mus musculus cGMP-specific phosphodiesterase 5A, isoform A2), produced in K. lactis CBS2359 transformed with p3XFlagPDE5A2 (Mus musculus); assay: native gel or EMSA; native PAGE, 5% non-denaturing gel, Tris/glycine pH 8.3, 4 C, 1.0 ug purified protein, Coomassie; pre-incubated at 30 C up to 3 h with or without DTT, cGMP, sildenafil or diamide
[2] = target: MmPDE5A2 (Mus musculus cGMP-specific phosphodiesterase 5A, isoform A2), produced in K. lactis CBS2359 transformed with p3XFlagPDE5A2 (Mus musculus); assay: SEC; purified protein (300 ug) on Superose 12 HR 10/30, 4 C, 0.20 mL/min, 20 mM HEPES pH 7.0, 1 mM EGTA, 5 mM beta-mercaptoethanol, 5 mM MgCl2, 100 mM NaCl, 2 mM PMSF, 0.05% Triton X-100; fractions tested for cGMP-hydrolysing activity and by native Western blot; column calibrated with MW markers
[3] = target: MmPDE5A2 produced in the K. lactis ragx1 mutant (Mus musculus); assay: native gel or EMSA; native PAGE, 5% non-denaturing gel, Tris/glycine pH 8.3, 4 C, 1.0 ug purified protein, Coomassie; pre-incubated at 30 C up to 3 h with or without DTT, cGMP, sildenafil or diamide
[4] = target: MmPDE5A3 produced in the K. lactis ragx1 mutant (Mus musculus); assay: as above
[5] = target: MmPDE5A3 (Mus musculus cGMP-specific phosphodiesterase 5A, isoform A3), produced in K. lactis wild type strain CBS2359 (Mus musculus); assay: as above
[6] = target: MmPDE5A3 (Mus musculus cGMP-specific phosphodiesterase 5A, isoform A3), produced in K. lactis wild type strain CBS2359 (Mus musculus); assay: SEC; purified protein (300 ug) on Superose 12 HR 10/30, 4 C, 0.20 mL/min, 20 mM HEPES pH 7.0, 1 mM EGTA, 5 mM beta-mercaptoethanol, 5 mM MgCl2, 100 mM NaCl, 2 mM PMSF, 0.05% Triton X-100; fractions tested for cGMP-hydrolysing activity and by native Western blot; column calibrated with MW markers
[7] = target: the molecule itself; assay: native gel or EMSA; native PAGE of K. lactis cell extracts with in-gel activity staining for G6PDH; cultures on various glucose concentrations, methylene blue, G418, ethanol; extracts also incubated overnight with NAD+ or NADP+

“MmPDE5A2 (Mus musculus cGMP-specific phosphodiesterase 5A, isoform A2), produced in K. lactis CBS2359 transformed with p3XFlagPDE5A2 (enzyme)” was tested. Which stoichiometry N [1] did it give?
Its stoichiometry N is 2.

And the stoichiometry N [2]?
The stoichiometry N was 2.

“MmPDE5A2 produced in the K. lactis ragx1 mutant (enzyme)” was tested. Which stoichiometry N [3] did it give?
The stoichiometry N was 2.

With “MmPDE5A3 produced in the K. lactis ragx1 mutant (enzyme)” as the molecule, how does the stoichiometry N [4] read?
Its stoichiometry N is 2.

With “MmPDE5A3 (Mus musculus cGMP-specific phosphodiesterase 5A, isoform A3), produced in K. lactis wild type strain CBS2359 (enzyme)” as the molecule, how does the stoichiometry N [5] read?
Its stoichiometry N is 2.

And the stoichiometry N [6]?
The stoichiometry N was 2.

B1: Glc-6-phosphate dehydrogenase (G6PDH) of Kluyveromyces lactis (enzyme, K. lactis (endogenous in CBS2359), UniProt P48828 1-497, looked up)
chain: MATQFDENTVITIFGASGDLSKKKTFPALFGLYREGYLNPTTKIIGYARSKLSNEDLREKVKPFLKKPNGAKDDAKVNEFLSMVSYHAGPYDSDEGYLELKKIIEEFEAEKKVDEPHRLFYLALPPSIFIDVCSKLKENLYTESGIQRVIVEKPFGHDLQSATELQEKLAPLFSEDELFRIDHYLGKEMVKNLLLMRFGNTFLNAAWNKENIQSVQVVFKEPFGTEGRGGYFDSIGIIRDVMQNHLLQVLTLLTMERPVSFDPESVRDEKVKVLKAFSPIDHDDILIGQYGRSVDGSKPSYLDDETVKEDSKCVTFAAIGFKIANERWDGVPIVMRAGKALNEGKVEIRIQFRRVASGMFTDIPNNELVIRIQPNEAIYLKCNAKTPGLANENQTTELDLTYSERYKNYWIPEAYESLIRDALLGDHSNFVRDDELDVSWKLFTPLLNYLEGPDGPQPKIYPYGCRSPDGLVEFLADHGYTFSKPGSYQWPVTTPKM
notes: glucose-6-phosphate 1-dehydrogenase, Kluyveromyces lactis, endogenous enzyme seen by in-gel activity staining; Seen as a slow (tetramer) and a faster (dimer) band; also called glucose 6-phosphate dehydrogenase; source: endogenous, K. lactis cell extracts
With B1 as the molecule, how does the “stoichiometry N” value [7] read?
The value was 4 and 2.
